Results published in PMC10397247.

T1: P3A-bA
T1 chain: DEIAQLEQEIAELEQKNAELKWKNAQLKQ

T2: P4A-bA
T2 chain: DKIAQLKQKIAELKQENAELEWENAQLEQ

T3: P5A-bA
T3 chain: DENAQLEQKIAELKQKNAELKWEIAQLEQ

T4: P6A-bA
T4 chain: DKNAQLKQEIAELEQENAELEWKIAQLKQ

T5: P7A-bA
T5 chain: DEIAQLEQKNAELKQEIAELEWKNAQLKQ

T6: P8A-bA
T6 chain: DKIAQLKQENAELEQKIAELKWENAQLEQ

T7: P9A-bA
T7 chain: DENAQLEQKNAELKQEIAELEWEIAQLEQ

T8: P3A-bN
T8 chain: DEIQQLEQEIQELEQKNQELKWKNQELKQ

T9: P4A-bN
T9 chain: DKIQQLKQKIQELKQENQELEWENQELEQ

T10: P5A-bN
T10 chain: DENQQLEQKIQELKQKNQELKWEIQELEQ

T11: P6A-bN
T11 chain: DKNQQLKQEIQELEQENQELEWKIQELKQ

T12: P7A-bN
T12 chain: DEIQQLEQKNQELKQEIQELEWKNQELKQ

T13: P8A-bN
T13 chain: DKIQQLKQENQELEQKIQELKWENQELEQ

T14: P9A-bN
T14 chain: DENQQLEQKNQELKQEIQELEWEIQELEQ

T15: P5SHb
T15 chain: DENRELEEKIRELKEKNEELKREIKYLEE

T16: P6SHb
T16 chain: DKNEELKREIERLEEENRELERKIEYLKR

T17: P7SHb
T17 chain: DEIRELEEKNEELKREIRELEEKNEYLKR

T18: P8SHb
T18 chain: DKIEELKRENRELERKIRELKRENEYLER

T19: P9SHb
T19 chain: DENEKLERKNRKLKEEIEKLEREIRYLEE

T20: P5A
T20 chain: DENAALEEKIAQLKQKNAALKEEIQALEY


Tests used:
Test in all cases: two-hybrid library CCNG1;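 note: natural log of median RNA to DNA barcode read ratio; higher means stronger binding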
P3A-bA = biological target: T1, P3A-bA
P4A-bA = biological target: T2, P4A-bA
P5A-bA = biological target: T3, P5A-bA
P6A-bA = biological target: T4, P6A-bA
P7A-bA = biological target: T5, P7A-bA
P8A-bA = biological target: T6, P8A-bA
P9A-bA = biological target: T7, P9A-bA
P3A-bN = biological target: T8, P3A-bN
P4A-bN = biological target: T9, P4A-bN
P5A-bN = biological target: T10, P5A-bN
P6A-bN = biological target: T11, P6A-bN
P7A-bN = biological target: T12, P7A-bN
P8A-bN = biological target: T13, P8A-bN
P9A-bN = biological target: T14, P9A-bN
P5SHb = biological target: T15, P5SHb
P6SHb = biological target: T16, P6SHb
P7SHb = biological target: T17, P7SHb
P8SHb = biological target: T18, P8SHb
P9SHb = biological target: T19, P9SHb
P5A = biological target: T20, P5A

Binder | interaction score (P3A-bA) | interaction score (P4A-bA) | interaction score (P5A-bA) | interaction score (P6A-bA) | interaction score (P7A-bA) | interaction score (P8A-bA) | interaction score (P9A-bA) | interaction score (P3A-bN) | interaction score (P4A-bN) | interaction score (P5A-bN) | interaction score (P6A-bN) | interaction score (P7A-bN) | interaction score (P8A-bN) | interaction score (P9A-bN) | also measured
DEIAQLEQENAELEQENAELEWEIAQLEQ [P1A-bA] | -1.12 | -1.08 | -1.1 | -1.21 | -0.804 | -0.805 | -1.21 |  |  |  |  |  |  |  | 
DEIQQLEQENQELEQENQELEWEIQELEQ [P1A-bN] |  |  |  |  |  |  |  | -1.29 | -0.418 | -0.827 | -0.545 | -1.2 | -0.492 | -2.46 | 
DENRELEEKIRELKEKNEELKREIKYLEE [P5SHb] |  |  |  |  |  |  |  |  |  |  |  |  |  |  | interaction score (P5SHb): -0.373; interaction score (P6SHb): 1.24; interaction score (P7SHb): -0.193; interaction score (P8SHb): 0.218; interaction score (P9SHb): -0.0948
DKIQQLKQKNQELKQKNQELKWKIQELKQ [P2A-bN] |  |  |  |  |  |  |  | -1.27 | -0.0603 | -0.834 | -0.329 | -2.31 | -0.172 | -0.223 | interaction score (P5A): -1.29
DEIAQLEQEIAELEQKNAELKWKNAQLKQ [P3A-bA] | -1.07 | 2.18 | -0.684 | 1.19 | -1.05 | 0.146 | 0.237 |  |  |  |  |  |  |  | 
